In assay [1] the target is T1, human calcitonin receptor (human, UniProt P30988 25-474).
T1 construct: whole, on cells; Used as cell membranes; also called hCTR; hCT
T1 sequence (looked up): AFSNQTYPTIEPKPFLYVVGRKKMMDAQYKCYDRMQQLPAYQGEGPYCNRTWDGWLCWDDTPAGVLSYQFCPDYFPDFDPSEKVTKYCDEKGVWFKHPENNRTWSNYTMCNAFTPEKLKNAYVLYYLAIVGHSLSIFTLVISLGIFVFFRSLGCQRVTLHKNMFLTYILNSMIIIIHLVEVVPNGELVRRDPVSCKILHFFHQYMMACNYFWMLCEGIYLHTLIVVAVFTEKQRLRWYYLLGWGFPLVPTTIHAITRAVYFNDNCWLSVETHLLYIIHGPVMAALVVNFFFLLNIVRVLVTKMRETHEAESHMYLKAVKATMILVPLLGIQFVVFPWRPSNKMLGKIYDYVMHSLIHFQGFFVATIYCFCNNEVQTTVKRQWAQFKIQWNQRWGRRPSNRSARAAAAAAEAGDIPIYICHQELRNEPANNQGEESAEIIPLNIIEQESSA
Nature of the assay: ratio of hCTR IC50 to hAmylin-R IC50 (reference: human amylin receptor). As to the method: The resulting pellet was resuspended, homogenized and centrifuged (20.000 rpm, 15 min) in a buffer containing 20 mM Na-HEPES and 0.1 mM EDTA (pH 7.4, buffer 2). The resulting pellet was resuspended in buffer 2 and protein concentration was measured (BCA protein Assay, Pierce). The homogenate was kept cold during the whole procedure. The membranes were kept at −80° C. until use. The assay was performed in a 384 well Optiplate (PerkinElmer) in a total volume of 40 ul. Membranes were mixed with SPA beads. Final concentration of membranes 35 ng/μL final and SPA beads was 0.05 mg/well. Test-compounds were dissolved in DMSO and further diluted in assay buffer (50 mM Hepes, pH 7.4, 1 mM CaCl2, 5 mM MgCl₂, 0.1% OA and 0.02% Tween20). […] The final mixture was incubated with shaking at 400 rpm for 120 min at 25° C. prior to centrifugation (1500 rpm, 10 min). Samples were analyzed on TopCounter™ (Packard). The IC₅₀ was calculated using (one site binding competition analysis) GraphPad Prism5 as a measure of receptor affinity.
Membranes were prepared in the following way; the cells were rinsed with PBS and incubated with Versene for approximately 5 min before harvesting. The cells were flushed with PBS and the cell-suspension was centrifuged for 5 min at 1000 rpm. Cells were homogenized (Ultrathurrax) in a buffer containing 20 mM Na-HEPES and 10 mM EDTA (pH 7.4) and centrifuged at 20.000 rpm for 15 min. The resulting pellet was resuspended, homogenized and centrifuged (20.000 rpm, 15 min) in a buffer containing 20 mM Na-HEPES and 0.1 mM EDTA (pH 7.4, buffer 2). The resulting pellet was resuspended in buffer 2 and protein concentration was measured (BCA protein Assay, Pierce). The homogenate was kept cold during the whole procedure. The membranes were kept at −80° C. until use. Assay was performed in a 384 well Optiplate (PerkinElmer) in a total volume of 40 ul. Membranes were mixed with SPA beads.

In assay [2] the target is T1, human calcitonin receptor. Nature of the assay: SPA competition on BHK cell membranes, 125I-calcitonin as radioligand (Assay VII). As to the method:
Membranes were prepared in the following way; the cells were rinsed with PBS and incubated with Versene for approximately 5 min before harvesting. The cells were flushed with PBS and the cell-suspension was centrifuged for 5 min at 1000 rpm. Cells were homogenized (Ultrathurrax) in a buffer containing 20 mM Na-HEPES and 10 mM EDTA (pH 7.4) and centrifuged at 20.000 rpm for 15 min. The resulting pellet was resuspended, homogenized and centrifuged (20.000 rpm, 15 min) in a buffer containing 20 mM Na-HEPES and 0.1 mM EDTA (pH 7.4, buffer 2). The resulting pellet was resuspended in buffer 2 and protein concentration was measured (BCA protein Assay, Pierce). The homogenate was kept cold during the whole procedure. The membranes were kept at −80° C. until use. Assay was performed in a 384 well Optiplate (PerkinElmer) in a total volume of 40 ul. Membranes were mixed with SPA beads. Final concentration of membranes 35 ng/μL final and Final concentration of SPA beads was 0.05 mg/well. Test-compounds were dissolved in DMSO and further diluted in assay buffer (50 mM Hepes, pH 7.4, 1 mM CaCl2, 5 mM MgCl₂, 0.1% OA and 0.02% Tween20). […] The final mixture was incubated for 120 min with shaking at 400 rpm at 25° C. prior to centrifugation (1500 rpm, 10 min). Samples were analyzed on TopCounter™ (Packard). The […] was calculated using (one site binding competition analysis) GraphPad Prism5 as a measure of receptor affinity.

Numbered stars: 1 amine (or outer) side, 2 acyl side, 3 side chain; on linkers, the order of the positions; unused ones are H or OH. Bridge positions count the residues as written; N and C are the ends. Side chains are listed from the residue outwards. Ends that are not written are not given here. * marks the point of attachment. C20 diacid = O=C(O)CCCCCCCCCCCCCCCCCCC(=O)*; γGlu = O=C(O)[C@H](CCC(=O)[*:2])N[*:1]; AEEA = NCCOCCOCC(=O)O

B1: N^ε1-[2-[2-[2-[[(4S)-4-carboxy-4-(19-carboxynonadecanoylamino)butanoyl]amino]ethoxy]ethoxy]acetyl]-[Ala14,Arg17,Pro21,Pro27,Pro31]-h-amylin (peptide)
peptide: K([AEEA-γGlu-C20 diacid])CNTATCATQRLAAFLRHSSPNFGAIPSSTPVGSNTY-NH2
modifications: disulfide 2-7; N-terminus assumed
SMILES: CC[C@H](C)[C@H](NC(=O)[C@H](C)NC(=O)CNC(=O)[C@H](Cc1ccccc1)NC(=O)[C@H](CC(N)=O)NC(=O)[C@@H]1CCCN1C(=O)[C@H](CO)NC(=O)[C@H](CO)NC(=O)[C@H](Cc1c[nH]cn1)NC(=O)[C@H](CCCNC(=N)N)NC(=O)[C@H](CC(C)C)NC(=O)[C@H](Cc1ccccc1)NC(=O)[C@H](C)NC(=O)[C@H](C)NC(=O)[C@H](CC(C)C)NC(=O)[C@H](CCCNC(=N)N)NC(=O)[C@H](CCC(N)=O)NC(=O)[C@@H](NC(=O)[C@H](C)NC(=O)[C@@H]1CSSC[C@H](NC(=O)[C@@H](N)CCCCNC(=O)COCCOCCNC(=O)CC[C@H](NC(=O)CCCCCCCCCCCCCCCCCCC(=O)O)C(=O)O)C(=O)N[C@@H](CC(N)=O)C(=O)N[C@@H]([C@@H](C)O)C(=O)N[C@@H](C)C(=O)N[C@@H]([C@@H](C)O)C(=O)N1)[C@@H](C)O)C(=O)N1CCC[C@H]1C(=O)N[C@@H](CO)C(=O)N[C@@H](CO)C(=O)N[C@H](C(=O)N1CCC[C@H]1C(=O)N[C@H](C(=O)NCC(=O)N[C@@H](CO)C(=O)N[C@@H](CC(N)=O)C(=O)N[C@H](C(=O)N[C@@H](Cc1ccc(O)cc1)C(N)=O)[C@@H](C)O)C(C)C)[C@@H](C)O
notes: also called compound 72
Turning to B1, the “Ratio hCT/hAmylin binding” value in assay [1] turned out to be 247. Further, the IC50 in assay [2] was determined as 42.4 nM.

B2: N^ε1-[2-[2-[2-[[(4S)-4-carboxy-4-(19-carboxynonadecanoylamino)butanoyl]amino]ethoxy]ethoxy]acetyl]-[Arg14,Arg17,Pro21,Pro27,Pro31]-h-amylin (peptide)
peptide: K([AEEA-γGlu-C20 diacid])CNTATCATQRLARFLRHSSPNFGAIPSSTPVGSNTY-NH2
modifications: disulfide 2-7; N-terminus assumed
SMILES: CC[C@H](C)[C@H](NC(=O)[C@H](C)NC(=O)CNC(=O)[C@H](Cc1ccccc1)NC(=O)[C@H](CC(N)=O)NC(=O)[C@@H]1CCCN1C(=O)[C@H](CO)NC(=O)[C@H](CO)NC(=O)[C@H](Cc1c[nH]cn1)NC(=O)[C@H](CCCNC(=N)N)NC(=O)[C@H](CC(C)C)NC(=O)[C@H](Cc1ccccc1)NC(=O)[C@H](CCCNC(=N)N)NC(=O)[C@H](C)NC(=O)[C@H](CC(C)C)NC(=O)[C@H](CCCNC(=N)N)NC(=O)[C@H](CCC(N)=O)NC(=O)[C@@H](NC(=O)[C@H](C)NC(=O)[C@@H]1CSSC[C@H](NC(=O)[C@@H](N)CCCCNC(=O)COCCOCCNC(=O)CC[C@H](NC(=O)CCCCCCCCCCCCCCCCCCC(=O)O)C(=O)O)C(=O)N[C@@H](CC(N)=O)C(=O)N[C@@H]([C@@H](C)O)C(=O)N[C@@H](C)C(=O)N[C@@H]([C@@H](C)O)C(=O)N1)[C@@H](C)O)C(=O)N1CCC[C@H]1C(=O)N[C@@H](CO)C(=O)N[C@@H](CO)C(=O)N[C@H](C(=O)N1CCC[C@H]1C(=O)N[C@H](C(=O)NCC(=O)N[C@@H](CO)C(=O)N[C@@H](CC(N)=O)C(=O)N[C@H](C(=O)N[C@@H](Cc1ccc(O)cc1)C(N)=O)[C@@H](C)O)C(C)C)[C@@H](C)O
notes: also called compound 64
For B2, the “Ratio hCT/hAmylin binding” value in assay [1] was 126. Further, the half-inhibitory concentration (IC50) in assay [2] stood at 56 nM.

These data come from US20140087995A1 (published 2014).
